Assay results taken from patent publication US20230357348A1 (AstraZeneca / MedImmune, published 2023).
Where two headings read alike, the source gives them in different places. Values belong to the binder of their own block, whether it stands above or below them. Starred links: 1 amine or outer side, 2 acyl side, 3 side chain; linkers in the order of their positions; H or OH if unused. Non-standard residues stand in square brackets, D forms with d. Groups on a side chain read outwards from the residue. Primed or numbered codes have the meaning given here. No end group written: not given here. *: point of attachment. C18 diacid = O=C(O)CCCCCCCCCCCCCCCCC(=O)*; γGlu = O=C(O)[C@H](CCC(=O)[*:2])N[*:1]; Stearoyl = CCCCCCCCCCCCCCCCCC(=O)*; Palmitoyl = CCCCCCCCCCCCCCCC(=O)*; αMeF = C[C@](N)(Cc1ccccc1)C(=O)O; (PEG)2 = polyethylene glycol 2; PEG2′ = polyethylene glycol 2; AEEA = NCCOCCOCC(=O)O; Aib = CC(C)(N)C(=O)O

Experiments:
Test in all cases: cell-based or functional assay
[1] = biological target: T1, human GLP-1 receptor (hGLP-1R) (human, UniProt P43220 24-463)
[2] = biological target: T2, human glucagon receptor (hGCGR) (human, UniProt P47871 26-477)
[3] = biological target: T1, human GLP-1 receptor (hGLP-1R); remark: listed apart in the source
[4] = biological target: T2, human glucagon receptor (hGCGR); remark: listed apart in the source

T2 sequence (P47871 26-477): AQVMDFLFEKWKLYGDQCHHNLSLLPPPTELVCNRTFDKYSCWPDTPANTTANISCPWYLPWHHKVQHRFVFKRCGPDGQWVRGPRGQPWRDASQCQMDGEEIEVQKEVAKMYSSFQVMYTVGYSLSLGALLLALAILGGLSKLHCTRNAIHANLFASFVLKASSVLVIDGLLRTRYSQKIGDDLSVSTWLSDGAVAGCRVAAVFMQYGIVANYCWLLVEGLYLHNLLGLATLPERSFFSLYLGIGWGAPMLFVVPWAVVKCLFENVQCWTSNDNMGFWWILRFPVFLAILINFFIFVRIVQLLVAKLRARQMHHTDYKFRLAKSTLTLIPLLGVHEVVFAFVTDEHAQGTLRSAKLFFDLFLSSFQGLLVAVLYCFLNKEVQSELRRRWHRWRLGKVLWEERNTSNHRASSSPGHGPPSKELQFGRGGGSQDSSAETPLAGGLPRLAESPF

- hGLP-1R EC50 (pM); cAMP production [1]: 0.583 pM
- hGluc-R EC50 (pM); cAMP production [2]: 11.8 pM
Binder: H[Aib]QGS[αMeF]TSDK([PEG2′-PEG2′-γGlu-Palmitoyl])SKILDSRAAQD[αMeF]VEWIANT-NH2 [Peptide 396 (of Table 9, position 10)]

- hGLP-1R EC50 (pM); cAMP production [3]: 1.04 pM
- hGluc-R EC50 (pM); cAMP production [4]: 18.1 pM
Binder: H[Aib]QGS[αMeF]TSDVSKK([(PEG)2-(PEG)2-γGlu-Palmitoyl])LDSRAAQD[αMeF]VEWIANT-NH2 [Peptide 402 (of Table 10, position 13)]

- hGLP-1R EC50 (pM); cAMP production [3]: 5.65 pM
- hGluc-R EC50 (pM); cAMP production [4]: 21.8 pM
Binder: HSQGS[αMeF]TSDVSKK([AEEA-AEEA-γGlu-γGlu-Stearoyl])LDSQAAQD[αMeF]VE[Aib]LANT-NH2 [Peptide 404 (of Table 10, position 13)]

- hGLP-1R EC50 (pM); cAMP production [1]: 312 pM
- hGluc-R EC50 (pM); cAMP production [2]: 6920 pM
B1: Peptide 392 (of Table 9, position 10) (peptide)
peptide: H[Aib]HGS[αMeF]TSDK([AEEA-AEEA-γGlu-C18 diacid])SK[αMeF]LDSRAAQD[αMeF]VQ[Aib]IANT-NH2
modifications: N-terminus assumed
SMILES: CC[C@H](C)[C@H](NC(=O)C(C)(C)NC(=O)[C@H](CCC(N)=O)NC(=O)[C@@H](NC(=O)[C@](C)(Cc1ccccc1)NC(=O)[C@H](CC(=O)O)NC(=O)[C@H](CCC(N)=O)NC(=O)[C@H](C)NC(=O)[C@H](C)NC(=O)[C@H](CCCNC(=N)N)NC(=O)[C@H](CO)NC(=O)[C@H](CC(=O)O)NC(=O)[C@H](CC(C)C)NC(=O)[C@](C)(Cc1ccccc1)NC(=O)[C@H](CCCCN)NC(=O)[C@H](CO)NC(=O)[C@H](CCCCNC(=O)COCCOCCNC(=O)COCCOCCNC(=O)CC[C@H](NC(=O)CCCCCCCCCCCCCCCCC(=O)O)C(=O)O)NC(=O)[C@H](CC(=O)O)NC(=O)[C@H](CO)NC(=O)[C@@H](NC(=O)[C@](C)(Cc1ccccc1)NC(=O)[C@H](CO)NC(=O)CNC(=O)[C@H](Cc1c[nH]cn1)NC(=O)C(C)(C)NC(=O)[C@@H](N)Cc1c[nH]cn1)[C@@H](C)O)C(C)C)C(=O)N[C@@H](C)C(=O)N[C@@H](CC(N)=O)C(=O)N[C@H](C(N)=O)[C@@H](C)O
